Reference: the supplement of paper PMC10567573

B1: ACSBG2 (parent)
chain: TPMTIPEFFRESVNRFGTYPALAS

Variants of: B1
Assay: protein stability index of a GFP-peptide fusion (GPS, HEK-293T) (PSI 1-6); higher = more stable
Settings: c terminus: a fixed tail appended
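Note: lentivirally expressed fusions sorted by FACS into six bins by GFP to DsRed ratio, PSI derived from sequencing read proportions per bin multiplied by bin number.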

Protein stability index: each site, then its substitutions
S12: M 2.64; H 2.27; F 1.66; N 2.25; W 1.39; G 2.48; I 1.76; K 2.17; D 2.96; L 2.01
A23: M 1.97; L 2.19; P 2.2; D 2.88; C 1.77; Y 1.82; T 2.33; N 2.5; E 2.61; R 2.56; I 2.37
Y19: T 2.76; L 2.38; G 2.73; D 3.44; K 2.8; V 2.71; P 2.87; A 2.82; E 3.37; W 2.38; N 2.84; H 2.77
P6: N 2.05; D 1.76; S 1.94; C 1.89; K 2.15; V 1.41; Y 1.99; H 2.38; E 2.15
E11: C 1.95; M 2.76; R 1.99; W 2.08; G 1.89; Q 1.5; D 2.58; Y 1.68; T 2.17; H 1.84; A 1.95
S24: R 2.96; F 1.58; M 2.67; H 1.93; V 1.37; Y 1.76; I 1.48; G 2.18; L 2.04; Q 2.08; E 2.83; K 2.45
R15: V 2.41; N 2.5; Q 2.69; E 2.62; C 2.12; G 1.97; M 1.8; T 2.57; I 2.24; S 2.64; D 2.78; F 2.25; Y 1.99; H 2.14
N14: G 2.18; Y 1.88; M 2.39; S 2.51; Q 2.24; W 1.74; F 1.66
I5: R 2.97; S 2.51; G 2.84; W 2.18; M 2.37; Y 2.05; N 2.39; K 2.19; D 2.7; L 1.97; C 2.58; V 2.03; H 2.39
F9: W 1.92; Q 2.37; I 2.27; H 2.98; K 2.67; P 2.79; D 3.36; E 3.41; M 2.45; N 3.16; C 2.17; Y 2.71
G17: W 2.12; T 1.91; R 2.42; S 2.62; H 2.28; K 2.27; F 1.8; I 1.97; N 2.34; M 2.17; Q 1.86; A 1.78
A21: K 2.87; V 1.78; W 2.53; C 1.88; L 1.77; G 2.47; M 2.26; N 2.19; I 2.23; Q 2.5; S 2.31; H 2.32
P2: V 1.98; C 1.72; N 2.2; D 2.65; A 2; S 2.41; H 2.29; E 2.89; I 1.44
E7: W 1.74; S 2; L 2.15; F 2.93; T 2.19; N 2.63; V 1.9; G 2.14; R 2.19; A 2.26; K 2.25
M3: W 1.69; K 2.46; V 2.11; Q 3.21; P 2.02; G 2.54; E 2.44; Y 2.49; F 2.14; D 2.52; A 2.34; C 2.34; R 2.61
T1: W 2; N 2.12; F 2.24; K 3.04; L 2.08; E 2.12; M 1.85; Y 2.27; S 2.13; V 1.93; R 2.34; P 2.43
V13: G 2.2; M 2.41; Y 2.64; Q 2.28; C 3.09; T 2.98; D 2.79; S 2.44; H 2.59; R 2.37; L 2.09; A 2.42; P 2.43
R10: G 2.37; L 1.45; F 2.04; Q 2.62; N 3.3; Y 1.86; H 2.15; T 2.37; W 1.97; I 1.51; D 2.75; K 2.55
P20: G 2.3; D 2.67; W 2.11; R 2.18; E 2.4; F 2.49; M 2.87; Y 1.56; T 1.48; Q 1.71
T18: C 2.35; H 2.1; I 2.02; P 2.08; R 2.17; E 3.05; L 2.31; D 2.9; N 2.35; W 1.49
F8: D 3.19; Y 2.4; E 2.35; S 2.9; R 2.39; T 2.8; P 2.72; K 3.02; L 2.66; N 3.19; V 2.14; G 3.02; C 2.7; A 2.99
F16: C 2.54; R 2.86; G 2.48; Q 2.8; H 3.03; S 2.71; L 2.11; E 3.37; D 3.62; I 2.36; A 3.51; N 3.41; V 2.64
L22: T 2.88; H 2.61; N 3.45; Y 1.93; Q 2.5; I 2.34; S 3.04; E 3.37; R 3.12; K 3.08; M 1.88; F 2.63
T4: F 1.65; C 2.36; G 2.34; E 2.52; H 2.38; I 1.88; A 2.62; Y 2.62; P 2.73; N 2.4; V 3.26; L 1.86; R 2.32; W 2.19; M 2.17
